Source: patent US20170313746A1 (published 2017)
Non-standard residues stand in square brackets, D forms with d. Phe(4-guanidino) = N=C(N)Nc1ccc(C[C@H](N)C(=O)O)cc1

Biological target: lactate dehydrogenase (LDH) in lysates of NCI-H460 cells (human, UniProt P00338 2-332)
Test: cell-based or functional assay

Row | IC50 of LDH activity (LDH activity kit on lysates of treated NCI-H460 cells) [µM] | Binder
1 | 22 | cyclo(PRGPRPVWW[Phe(4-guanidino)][Phe(4-guanidino)]WW[Phe(4-guanidino)][Phe(4-guanidino)]WW) (SMILES CC(C)[C@@H]1NC(=O)[C@@H]2CCCN2C(=O)[C@H](CCCNC(=N)N)NC(=O)[C@@H]2CCCN2C(=O)CNC(=O)[C@H](CCCNC(=N)N)NC(=O)[C@@H]2CCCN2C(=O)[C@H](Cc2c[nH]c3ccccc23)NC(=O)[C@H](Cc2c[nH]c3ccccc23)NC(=O)[C@H](Cc2ccc(NC(=N)N)cc2)NC(=O)[C@H](Cc2ccc(NC(=N)N)cc2)NC(=O)[C@H](Cc2c[nH]c3ccccc23)NC(=O)[C@H](Cc2c[nH]c3ccccc23)NC(=O)[C@H](Cc2ccc(NC(=N)N)cc2)NC(=O)[C@H](Cc2ccc(NC(=N)N)cc2)NC(=O)[C@H](Cc2c[nH]c3ccccc23)NC(=O)[C@H](Cc2c[nH]c3ccccc23)NC1=O) [HILR-030 (cyclo-[Pro-Arg-Gly-Pro-Arg-Pro-Val-Trp-Trp-Gpa-Gpa-Trp-Trp-Gpa-Gpa-Trp-Trp])]
2 | 16 | PRGPRPVWWRRWWRRWW (head-to-tail cyclic peptide) [HILR-025 (cyclo-[Pro-Arg-Gly-Pro-Arg-Pro-Val-Trp-Trp-Arg-Arg-Trp-Trp-Arg-Arg-Trp-Trp])]
